According to paper PMC10945755 (Proceedings of the National Academy of Sciences of the …, 2024):
Read-outs that look alike come from different tables or passages of the source.

B5: GABARAP (natural protein)
chain: MKFVYKEEHPFEKRRSEGEKIRKKYPDRVPVIVEKAPKARIGDLDKKKYLVPSDLTVGQFYFLIRKRIHLRAEDALFFFVNNVIPPTSATMGQLYQEHHEEDFFLYIAYSDESVYGL

How the values were obtained:
GABARAPL1 = GABARAPL1 (UniProt Q9H0R8 1-117); assay: ITC
GABARAP = target: B5; assay: ITC
GABARAPL2 = GABARAPL2 (UniProt P60520 1-117); assay: SEC
Chain of GABARAPL2 (P60520 whole entry): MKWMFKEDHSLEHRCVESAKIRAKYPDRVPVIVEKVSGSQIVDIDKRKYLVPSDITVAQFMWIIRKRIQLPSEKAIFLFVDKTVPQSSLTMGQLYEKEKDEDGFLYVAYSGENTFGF

TAX1BP1(1-121) = TAX1BP1(1-121) (UniProt Q86VP1 1-121, 15N-labeled in the NMR titrations); assay: ITC
Chain of TAX1BP1(1-121) (Q86VP1 1-121): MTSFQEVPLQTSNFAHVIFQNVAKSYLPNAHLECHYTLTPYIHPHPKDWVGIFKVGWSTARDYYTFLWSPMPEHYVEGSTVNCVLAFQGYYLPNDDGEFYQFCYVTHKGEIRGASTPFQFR

TAX1BP1(1-237) [1] = target: T1, TAX1BP1(1-237) (UniProt Q86VP1 1-237, labeled (label not named) in the spectral shift binding assay); assay: spectral shift binding assay
T1 sequence (Q86VP1 1-237): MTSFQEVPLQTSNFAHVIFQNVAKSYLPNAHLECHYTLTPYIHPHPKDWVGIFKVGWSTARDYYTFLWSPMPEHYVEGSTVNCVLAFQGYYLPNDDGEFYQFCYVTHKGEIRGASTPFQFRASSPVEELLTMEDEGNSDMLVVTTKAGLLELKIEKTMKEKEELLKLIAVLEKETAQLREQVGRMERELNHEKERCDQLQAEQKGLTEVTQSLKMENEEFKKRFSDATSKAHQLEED

AUC = target: the molecule itself; assay: AUC
TAX1BP1(1-237) [2] = target: T1, TAX1BP1(1-237); assay: SEC
Trx-TAX1BP1(1-237) [3] = target: T2, Trx-TAX1BP1(1-237) (UniProt Q86VP1 1-237); assay: AUC
T2 sequence (Q86VP1 1-237): as above

crystal structure = target: the molecule itself; assay: crystal structure
[4] = target: TAX1BP1(1-237)/RB1CC1(1286-1594) complex (Trx-TAX1BP1(1-237) with Nano-RB1CC1(1286-1594)) (UniProt Q86VP1 1-237; Q8TDY2 1286-1594); assay: SEC
Chain of TAX1BP1(1-237)/RB1CC1(1286-1594) complex (Trx-TAX1BP1(1-237) with Nano-RB1CC1(1286-1594)) (Q86VP1 1-237, one chain of several): as the sequence (Q86VP1 1-237) above

Trx-TAX1BP1(1-237) [5] = target: T2, Trx-TAX1BP1(1-237); assay: SEC
Nano-RB1CC1(1286-1594) = Nano-RB1CC1(1286-1594) (UniProt Q8TDY2 1286-1594); assay: SEC
[6] = target: TAX1BP1(1-237)/RB1CC1(1286-1594) R1375A (UniProt Q86VP1 1-237; Q8TDY2 1286-1594, R1375A); assay: SEC
Chain of TAX1BP1(1-237)/RB1CC1(1286-1594) R1375A (Q86VP1 1-237, stated change not applied, one chain of several): as the sequence (Q86VP1 1-237) above

[7] = target: TAX1BP1(1-237)/RB1CC1(1286-1395) complex (UniProt Q86VP1 1-237; Q8TDY2 1286-1395); assay: SEC
Chain of TAX1BP1(1-237)/RB1CC1(1286-1395) complex (Q86VP1 1-237, one chain of several): as the sequence (Q86VP1 1-237) above

[8] = target: TAX1BP1(1-237)/NAP1(1-75)/RB1CC1(1286-1594) ternary complex (UniProt Q86VP1 1-237; Q9H6S1 1-75; Q8TDY2 1286-1594); assay: SEC
Chain of TAX1BP1(1-237)/NAP1(1-75)/RB1CC1(1286-1594) ternary complex (Q86VP1 1-237, one chain of several): as the sequence (Q86VP1 1-237) above

TAX1BP1(1-237) [9] = target: T1, TAX1BP1(1-237); assay: SEC; remark: listed apart in the source

Chain of GABARAPL1 (Q9H0R8 whole entry): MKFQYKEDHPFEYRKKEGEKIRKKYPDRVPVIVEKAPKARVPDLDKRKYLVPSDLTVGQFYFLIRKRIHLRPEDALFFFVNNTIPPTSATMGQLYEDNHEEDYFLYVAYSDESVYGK

SSPVEELLTMEDEGNSDMLVVTTKAGLLE (domain or fragment, UniProt Q86VP1 123-151, looked up) [TAX1BP1(123-151)]
Kd (GABARAPL1): 9.54 µM
Kd (GABARAP): 4.07 µM
binding result (GABARAPL2): binds

B1: RB1CC1(1286-1395) (domain or fragment, UniProt Q8TDY2 1286-1395, looked up)
chain: SLVAELQEKLQEEKAKFLEQLEEQEKRKNEEMQNVRTSLIAEQQTNFNTVLTREKMRKENIINDLSDKLKSTMQQQERDKDLIESLSEDRARLLEEKKKLEEEVSKLRSS
Kd (TAX1BP1(1-121)): ~4.91 µM
Kd (TAX1BP1(1-237) [1]): ~1.13 µM
stoichiometry N (AUC): 2

ESVASHFALVTAYEDIKKRLKDSEKENSLLKKRIRFLEEKLIA (domain or fragment, UniProt Q9H6S1 33-75, looked up) [NAP1(33-75)]
binding result (TAX1BP1(1-237) [2]): binds
binding result (Trx-TAX1BP1(1-237) [3]): binds

B2: RB1CC1(1343-1395) (domain or fragment, UniProt Q8TDY2 1343-1395, looked up)
chain: KENIINDLSDKLKSTMQQQERDKDLIESLSEDRARLLEEKKKLEEEVSKLRSS
stoichiometry N (crystal structure): 2

B3: Trx-NAP1(1-75) (domain or fragment, UniProt Q9H6S1 1-75, looked up)
chain: MDALVEDDICILNHEKAHKRDTVTPVSIYSGDESVASHFALVTAYEDIKKRLKDSEKENSLLKKRIRFLEEKLIA
binding result [4]: binds
binding result (Trx-TAX1BP1(1-237) [5]): binds
binding result (Nano-RB1CC1(1286-1594)): binds

B4: NAP1(1-75) (domain or fragment, UniProt Q9H6S1 1-75, looked up)
chain: MDALVEDDICILNHEKAHKRDTVTPVSIYSGDESVASHFALVTAYEDIKKRLKDSEKENSLLKKRIRFLEEKLIA
binding result [6]: binds

B5
binding result [7]: binds
binding result [8]: binds
binding result (TAX1BP1(1-237) [9]): binds

B6: RB1CC1(1396-1594) (domain or fragment, UniProt Q8TDY2 1396-1594, looked up)
chain: SFVPSPYVATAPELYGACAPELPGESDRSAVETADEGRVDSAMETSMMSVQENIHMLSEEKQRIMLLERTLQLKEEENKRLNQRLMSQSMSSVSSRHSEKIAIRDFQVGDLVLIILDERHDNYVLFTVSPTLYFLHSESLPALDLKPGEGASGASRRPWVLGKVMEKEYCQAKKAQNRFKVPLGTKFYRVKAVSWNKKV
binding result (TAX1BP1(1-237) [9]): binds

EDEGNSDMLVVTTKAGLLE (domain or fragment, UniProt Q86VP1 133-151, looked up) [TAX1BP1(133-151)]
binding result (GABARAP): binds

B7: RB1CC1(1450-1594) (domain or fragment, UniProt Q8TDY2 1450-1594, looked up)
chain: HMLSEEKQRIMLLERTLQLKEEENKRLNQRLMSQSMSSVSSRHSEKIAIRDFQVGDLVLIILDERHDNYVLFTVSPTLYFLHSESLPALDLKPGEGASGASRRPWVLGKVMEKEYCQAKKAQNRFKVPLGTKFYRVKAVSWNKKV
Kd (TAX1BP1(1-237) [1]): > 136 µM
